25 molecules from patent US20260151494A1 (ARO BIOTHERAPEUTICS, published 2026) can be followed below.

In assay [1] the target is T1, apical domain of human CD71 (human, UniProt P02786 189-383, limits assumed).
T1 construct: domain: apical domain; Screen 4 panned on human apical domains, the ELISA text says only 'apical domain'
The experiment in a line: primary ELISA. Note: test concentration or dose not given here.

The target in assay [2] is T2, human CD71 extracellular domain (human, UniProt P02786 89-760, biotinylated).
T2 construct: also called hCD71; CD71-ECD
Nature of the assay: primary ELISA. Note: test concentration or dose not given here.

Assay [3] concerns the target T1, apical domain of human CD71. Nature of the assay: primary ELISA, RLU over HSA. For orientation: ELISA stands for enzyme-linked immunosorbent assay.
Assay [4] addresses T2, human CD71 extracellular domain. Nature of the assay: primary ELISA, RLU over HSA.

T1 sequence (P02786 189-383 limits assumed): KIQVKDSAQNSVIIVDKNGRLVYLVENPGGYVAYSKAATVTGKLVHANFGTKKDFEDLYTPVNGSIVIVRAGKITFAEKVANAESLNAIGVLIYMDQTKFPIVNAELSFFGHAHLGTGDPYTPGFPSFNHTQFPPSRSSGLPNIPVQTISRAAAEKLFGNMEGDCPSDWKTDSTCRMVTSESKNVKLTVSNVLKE
T2 sequence (P02786 89-760): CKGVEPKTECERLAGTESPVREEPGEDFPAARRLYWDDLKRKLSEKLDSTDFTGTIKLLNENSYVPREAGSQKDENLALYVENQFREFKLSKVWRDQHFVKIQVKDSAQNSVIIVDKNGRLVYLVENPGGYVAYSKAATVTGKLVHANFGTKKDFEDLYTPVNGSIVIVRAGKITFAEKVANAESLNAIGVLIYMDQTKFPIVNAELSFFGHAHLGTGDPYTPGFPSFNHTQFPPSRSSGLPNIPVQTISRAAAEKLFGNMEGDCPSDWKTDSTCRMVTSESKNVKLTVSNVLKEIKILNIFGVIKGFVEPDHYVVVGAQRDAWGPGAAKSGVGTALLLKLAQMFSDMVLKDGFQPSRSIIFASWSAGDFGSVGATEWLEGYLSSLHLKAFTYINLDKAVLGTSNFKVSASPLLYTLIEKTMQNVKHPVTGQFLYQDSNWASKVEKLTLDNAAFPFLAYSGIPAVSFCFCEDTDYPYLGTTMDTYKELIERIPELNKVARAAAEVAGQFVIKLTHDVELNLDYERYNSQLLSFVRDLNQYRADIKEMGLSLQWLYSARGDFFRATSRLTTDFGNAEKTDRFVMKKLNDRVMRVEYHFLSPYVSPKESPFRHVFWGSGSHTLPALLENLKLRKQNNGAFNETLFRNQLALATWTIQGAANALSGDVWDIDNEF

B1: CD71-binding FN3 domain of SEQ ID NO: 484 (designed binder)
chain: MLPAPKNLVVSRVTEDSARLSWTAPDAAFDSFEIAYQELSLWGEAIVLTVPGSERSYDLTGLKPGTEYYVHIGGVKGGIWSSPLSAISTT
On to B1, for which the figures for the RLU in assay [1] and in assay [2] were 4.69e+06 RLU and 1.47e+06 RLU, respectively. Moreover, the “Apical domain:HSA” value in assay [3] was determined as 113. Also, the “hCD71:HSA” value in assay [4] was 35.

B2: CD71-binding FN3 domain of SEQ ID NO: 458 (designed binder)
chain: MLPAPKNLVVSRVTEDSARLSWTAPDAAFDSFLDLLPSNWDIAGEAIVLTVPGSERSYDLTGLKPGTEYHVNILGVKGGKESLPLVANFTT
For B2, the RLU came out at 4.64e+06 RLU in assay [1] and 3.44e+06 RLU in assay [2]. Moreover, in assay [3], the “Apical domain:HSA” value worked out at 69. Further, the “hCD71:HSA” value in assay [4] worked out at 51.

B3: CD71-binding FN3 domain of SEQ ID NO: 488 (designed binder)
chain: MLPAPKNLVVSRVTEDSARLSWTAPDAAFDSFIIQYGEYLRWGEAIVLTVPGSERSYDLTGLKPGTEYQVEIYGVKGGPLSKPLSAIFTT
With B3, the RLU in assay [1] came to 6.14e+06 RLU; in assay [2] it was 3.18e+06 RLU. Moreover, the “Apical domain:HSA” value in assay [3] was determined as 103. The “hCD71:HSA” value in assay [4] was determined as 53.

B4: CD71-binding FN3 domain of SEQ ID NO: 463 (designed binder)
chain: MLPAPKNLVVSRVTEDSARLSWTAPDAAFDSFLILYIEQDHRGEAIVLTVPGSERSYDLTGLKPGTEYWVHITGVKGGYYSAPLSAIFTT
As for B4, the RLU in assay [1] stood at 5.51e+06 RLU; in assay [2] it was 5.62e+06 RLU. In assay [3], the “Apical domain:HSA” value was 89. Further, the “hCD71:HSA” value in assay [4] amounted to 91.

B5: CD71-binding FN3 domain of SEQ ID NO: 466 (designed binder)
chain: MLPAPKNLVVSRVTEDSARLSWTAPDAAFDSFYIAYAEPRPDGEAIWLLVPGSERSYDLTGLKPGTEYSVLIHGVKGGLLSSPLSADFTT
On to B5, for which the RLU stood at 4.3e+06 RLU in assay [1] and 1.08e+06 RLU in assay [2]. Moreover, the “Apical domain:HSA” value in assay [3] stood at 279. Further, the “hCD71:HSA” value in assay [4] worked out at 70.

B6: CD71-binding FN3 domain of SEQ ID NO: 540 (designed binder)
chain: MLPAPKNLVVSRVTEDSARLSWTAPDAAFDSFYIAYAEPRPDGEAIILVVPGSERSYDLTGLKPGTEYSVLIHGVKGGLLSSPLDAGFTT
Regarding B6, the RLU in assay [1] worked out at 5.85e+06 RLU; in assay [2] it was 3.79e+06 RLU. Also, the “Apical domain:HSA” value in assay [3] was determined as 306. Further, in assay [4], the “hCD71:HSA” value stood at 198.

B7: CD71-binding FN3 domain of SEQ ID NO: 477 (designed binder)
chain: MLPAPKNLVVSRVTEDSARLSWTAPDAAFDSFEIAYFETCRTGEAIVLTVPGSERSYDLTGLKPGTEYGVSIYGVKGGAHSGPLSAIFTT
On to B7, for which the RLU in assay [1] came out at 2.4e+06 RLU; in assay [2] it was 1.88e+06 RLU. In addition, the “Apical domain:HSA” value in assay [3] was 370. Further, the “hCD71:HSA” value in assay [4] stood at 289.

B8: CD71-binding FN3 domain of SEQ ID NO: 530 (designed binder)
chain: MLPAPKNLVVSRVTEDSARLSWTAPDAAFDSFFIGYLEPQPPGEAIDLLVPGSERSYDLTGLKPGTEYNVTIQGVKGGFPSEPLFAHFTT
In the case of B8, the results for the RLU in assay [1] and in assay [2] were 4.48e+06 RLU and 4.61e+06 RLU, respectively. The “Apical domain:HSA” value in assay [3] came out at 281. Moreover, the “hCD71:HSA” value in assay [4] turned out to be 289.

B9: CD71-binding FN3 domain of SEQ ID NO: 545 (designed binder)
chain: MLPAPKNLVVSRVTEDSARLSWTAPDAAFDSFFIGYLEPQPPGEAISLVVPGSERSYDLTGLKPGTEYNVTIQGVKGGFPSNPLIATFTT
As to B9, the RLU in assay [1] and in assay [2] was 4.22e+06 RLU throughout. The “Apical domain:HSA” value in assay [3] amounted to 327. Moreover, the “hCD71:HSA” value in assay [4] worked out at 327.

B10: CD71-binding FN3 domain of SEQ ID NO: 535 (designed binder)
chain: MLPAPKNLVVSRVTEDSARLSWTAPDAAFDSFFIGYLEPQPPGEAIHLQVPGSERSYDLTGLKPGTEYNVTIQGVKGGFPSDPLVAKFTT
With B10, the RLU amounted to 3.38e+06 RLU in assay [1] and 4.29e+06 RLU in assay [2]. Besides, the “Apical domain:HSA” value in assay [3] is 285. The “hCD71:HSA” value in assay [4] is 362.

B11: CD71-binding FN3 domain of SEQ ID NO: 538 (designed binder)
chain: MLPAPKNLVVSRVTEDSARLSWTAPDAAFDSFFIGYLEPQPPGEAIDLYVPGSERSYDLTGLKPGTEYNVTIQGVKGGFPSHPLVAVFTT
Turning to B11, the values for the RLU in assay [1] and in assay [2] were 4.93e+06 RLU and 5.57e+06 RLU, respectively. Besides, in assay [3], the “Apical domain:HSA” value is 164. The “hCD71:HSA” value in assay [4] was determined as 185.

B12: CD71-binding FN3 domain of SEQ ID NO: 539 (designed binder)
chain: MLPAPKNLVVSRVTEDSARLSWTAPDAAFDSFFIGYLEPQPPGEAIHLFVPGSERSYDLTGLKPGTEYNVTIQGVKGGFPSDPLHAAFTT
As for B12, the RLU turned out to be 6.08e+06 RLU in assay [1] and 4.94e+06 RLU in assay [2]. For the same molecule, in assay [3], the “Apical domain:HSA” value was 205. In addition, in assay [4], the “hCD71:HSA” value is 167.

B13: CD71-binding FN3 domain of SEQ ID NO: 542 (designed binder)
chain: MLPAPKNLVVSRVTEDSARLSWTAPDAAFDSFFIGYLEPQPPGEAIELFVPGSERSYDLTGLKPGTEYNVTIQGVKGGFPSMPLSAIFTT
For the molecule B13, the RLU in assay [1] was found to be 3e+06 RLU; in assay [2], 2.13e+06 RLU. Further, the “Apical domain:HSA” value in assay [3] was 237. The “hCD71:HSA” value in assay [4] came to 169.

B14: CD71-binding FN3 domain of SEQ ID NO: 543 (designed binder)
chain: MLPAPKNLVVSRVTEDSARLSWTAPDAAFDSFFIGYLEPQPPGEAISLYVPGSERSYDLTGLKPGTEYNVTIQGVKGGFPSIPLVAVFTT
In the case of B14, the results for the RLU in assay [1] and in assay [2] were 4.65e+06 RLU and 5.29e+06 RLU, respectively. Also, in assay [3], the “Apical domain:HSA” value stood at 182. For the same molecule, the “hCD71:HSA” value in assay [4] amounted to 207.

B15: CD71-binding FN3 domain of SEQ ID NO: 534 (designed binder)
chain: MLPAPKNLVVSRVTEDSARLSWTAPDAAFDSFFIGYLEPQPPGEAIHLLVPGSERSYDLTGLKPGTEYNVTIQGVKGGFPSGPLQASFTT
On to B15, for which the RLU was determined as 5.76e+06 RLU in assay [1] and 5.2e+06 RLU in assay [2]. For the same molecule, the “Apical domain:HSA” value in assay [3] turned out to be 207. In addition, the “hCD71:HSA” value in assay [4] amounted to 187.

B16: CD71-binding FN3 domain of SEQ ID NO: 541 (designed binder)
chain: MLPAPKNLVVSRVTEDSARLSWTAPDAAFDSFFIGYLEPQPPGEAIDLWVPGSERSYDLTGLKPGTEYNVTIQGVKGGFPSMPLDAYFTT
Consider B16, for which the RLU in assay [1] was determined as 3.42e+06 RLU; in assay [2] it was 1.79e+06 RLU. The “Apical domain:HSA” value in assay [3] was determined as 140. In addition, the “hCD71:HSA” value in assay [4] was found to be 73.

B17: CD71-binding FN3 domain of SEQ ID NO: 544 (designed binder)
chain: MLPAPKNLVVSRVTEDSARLSWTAPDAAFDSFFIGYLEPQPPGEAIALLVPGSERSYDLTGLKPGTEYNVTIQGVKGGFPSHPLSASFTT
B17: the RLU is 4.07e+06 RLU in assay [1] and 4.04e+06 RLU in assay [2]. In assay [3], the “Apical domain:HSA” value worked out at 243. In assay [4], the “hCD71:HSA” value is 241.

B18: CD71-binding FN3 domain of SEQ ID NO: 533 (designed binder)
chain: MLPAPKNLVVSRVTEDSARLSWTAPDAAFDSFFIGYLEPQPPGEAINLFVPGSERSYDLTGLKPGTEYNVTIQGVKGGFPSMPLSAIFTT
As for B18, the RLU was 5.25e+06 RLU in assay [1] and 3.18e+06 RLU in assay [2]. In addition, the “Apical domain:HSA” value in assay [3] worked out at 241. Also, in assay [4], the “hCD71:HSA” value stood at 146.

B19: CD71-binding FN3 domain of SEQ ID NO: 480 (designed binder)
chain: MLPAPKNLVVSRVTEDSARLSWTAPDAAFDSFEIDYAEDIREGEAIALVVPGSERSYDLTGLKPGTEYWVSIGGVKGGTWSRPLFAPFTT
With B19, the RLU turned out to be 4.27e+06 RLU in assay [1] and 1.66e+06 RLU in assay [2]. Further, the “Apical domain:HSA” value in assay [3] turned out to be 181. For the same molecule, the “hCD71:HSA” value in assay [4] was 70.

B20: CD71-binding FN3 domain of SEQ ID NO: 495 (designed binder)
chain: MLPAPKNLVVSRVTEDSARLSWTAPDAAFDSFFINYREDKWIGEAIVLTVPGSERSYDLTGLKPGTEYSVPIDGVKGGAASPPLSAIFTT
For B20, the figures for the RLU in assay [1] and in assay [2] were 4.03e+06 RLU and 1.14e+06 RLU, respectively. The “Apical domain:HSA” value in assay [3] was 504. Also, the “hCD71:HSA” value in assay [4] worked out at 142.

B21: CD71-binding FN3 domain of SEQ ID NO: 471 (designed binder)
chain: MLPAPKNLVVSRVTEDSARLSWTAPDAAFDSFTIWYYESPTGGEAIVLTVPGSERSYDLTGLKPGTEYMVFIQGVKGGCFSTPLYAIFTT
As for B21, the values for the RLU in assay [1] and in assay [2] were 3.88e+06 RLU and 1.65e+06 RLU, respectively. Also, in assay [3], the “Apical domain:HSA” value was determined as 98. Also, the “hCD71:HSA” value in assay [4] was 42.

B22: CD71-binding FN3 domain of SEQ ID NO: 509 (designed binder)
chain: MLPAPKNLVVSRVTEDSARLSWTAPDAAFDSFEIGYWENAYKGEAIVLTVPGSERSYDLTGLKPGTEYEVFIGGVKGGVWSVPLSAIFTT
Take B22: the results for the RLU in assay [1] and in assay [2] were 4.6e+06 RLU and 1.74e+06 RLU, respectively. Further, the “Apical domain:HSA” value in assay [3] came to 353. For the same molecule, the “hCD71:HSA” value in assay [4] was 134.

B23: CD71-binding FN3 domain of SEQ ID NO: 455 (designed binder)
chain: MLPAPKNLVVSRVTEDSARLSWTAPDAAFDSFTISYPEEAKHGEAIVLTVPGSERSYDLTGLKPGTEYGVPINGVKGGVSSLPLSAIFTT
Consider B23, for which the RLU in assay [1] is 4.83e+06 RLU; in assay [2], 1.56e+06 RLU. The “Apical domain:HSA” value in assay [3] amounted to 171. Further, the “hCD71:HSA” value in assay [4] was found to be 55.

B24: CD71-binding FN3 domain of SEQ ID NO: 468 (designed binder)
chain: MLPAPKNLVVSRVTEDSARLSWTAPDAAFDSFLIQYDEEGVWGEAIVLTVPGSERSYDLTGLKPGTEYSVGIGGVKGGWSSVPLSAIFTT
Consider B24, for which the RLU in assay [1] came to 3.58e+06 RLU; in assay [2] it was 1.05e+06 RLU. Besides, the “Apical domain:HSA” value in assay [3] was 24. Moreover, the “hCD71:HSA” value in assay [4] was 71.

B25: CD71-binding FN3 domain of SEQ ID NO: 489 (designed binder)
chain: MLAPKNLVVSRVTEDSARLSWTAPDAAFDSFFIGYLEPQPPGEAISLLVPGSERSYDLTGLKPGTEYNVTIQGVKGGFPSSPLLAGFTT
Consider B25, for which the RLU in assay [1] was 4.06e+06 RLU; in assay [2], 2.81e+06 RLU. Besides, the “Apical domain:HSA” value in assay [3] is 340. Also, the “hCD71:HSA” value in assay [4] turned out to be 235.
